From the Immune Epitope Database (IEDB) come the findings set out here.

The target of assay [1] is HLA-A*03:01. In words: IEDB peptide-MHC binding, purified MHC/competitive/fluorescence; ≥ and ≤ were set here for values at or beyond the usual limits of such assays.
The target in assay [2] is HLA-B*15:01. Described as above.
In assay [3] the target is HLA-A*02:01. Described as above.
The target of the next assay is HLA-A*24:02. Described as above.
In assay [4] the target is HLA-A*11:01. The assay is described as above.
Assay [5] concerns the target HLA-A*03:01. Briefly: IEDB peptide-MHC binding, purified MHC/direct/fluorescence; filed as Kd, often an IC50 or EC50 that approximates it; ≥ and ≤ were set here for values at or beyond the usual limits of such assays.
For the next assay, the target named is HLA-A*29:02. The assay is described as above.
For a further assay, the target named is HLA-A*02:12. The assay is described as above. The following applies: source organism: Zaire ebolavirus.
Another assay has as its target HLA-A*69:01. The description is as above.
Assay [6] deals with HLA-B*15:01. The assay is described as above. The following applies: source organism: Zaire ebolavirus.
In another assay the target is HLA-B*48:01. Described as above. The following applies: source organism: Zaire ebolavirus.
In the next assay the target is HLA-A*02:11. The description is as above. The following applies: source organism: Zaire ebolavirus.
A further assay has as its target HLA-A*68:02. The description is as above. The following applies: source organism: Zaire ebolavirus.
The next assay has as its target HLA-A*31:01. The description is as above. The following applies: source organism: Zaire ebolavirus.
A further assay addresses HLA-B*46:01. Described as above.
The next assay concerns the target HLA-B*27:05. The assay is described as above. The following applies: source organism: Zaire ebolavirus.
Another assay deals with HLA-B*58:01. Described as above.
A further assay has as its target HLA-A*24:03. The assay is described as above. The following applies: source organism: Zaire ebolavirus.
The target of another assay is HLA-B*08:01. The description is as above.
The target in assay [7] is HLA-A*11:01. The description is as above. The following applies: source organism: Zaire ebolavirus.
The target of another assay is HLA-B*07:02. The assay is described as above.
Another assay has as its target HLA-A*01:01. The description is as above.
The target in a further assay is HLA-B*57:01. The assay is described as above.
A further assay has as its target HLA-B*27:03. In words: IEDB peptide-MHC binding, purified MHC/competitive/fluorescence; filed as Kd, often an IC50 or EC50 that approximates it; ≥ and ≤ were set here for values at or beyond the usual limits of such assays. The following applies: source organism: Zaire ebolavirus.
For assay [8], the target named is HLA-A*26:01. The assay is described as above. The following applies: source organism: Zaire ebolavirus.
The target of assay [9] is HLA-B*18:01. The assay is described as above. The following applies: source organism: Zaire ebolavirus.
The target of assay [10] is HLA-A*02:01. The assay is described as above. The following applies: source organism: Zaire ebolavirus.
The next assay addresses HLA-B*39:01. Described as above. The following applies: source organism: Zaire ebolavirus.
For a further assay, the target named is HLA-C*15:02. In words: IEDB peptide-MHC binding, purified MHC/direct/fluorescence; filed as Kd, often an IC50 or EC50 that approximates it; ≥ and ≤ were set here for values at or beyond the usual limits of such assays.
A further assay has as its target HLA-B*40:01. The assay is described as above. The following applies: source organism: Brucella suis.
For a further assay, the target named is HLA-B*08:02. Described as above.
Assay [11] deals with HLA-B*18:01. The assay is described as above. The following applies: source organism: Brucella suis.
The target of assay [12] is HLA-A*02:01. Described as above.
A further assay addresses HLA-B*44:02. The description is as above. The following applies: source organism: Brucella suis.
The target in assay [13] is HLA-A*26:01. The description is as above. The following applies: source organism: Influenza A virus (A/swine/Miyagi/5/2003(H1N2)).
Another assay addresses HLA-B*35:01. Briefly: IEDB peptide-MHC binding, purified MHC/competitive/fluorescence; filed as Kd, often an IC50 or EC50 that approximates it; ≥ and ≤ were set here for values at or beyond the usual limits of such assays. The following applies: source organism: Influenza A virus H3N2.
For another assay, the target named is HLA-C*05:01. In words: IEDB peptide-MHC binding, purified MHC/direct/fluorescence; filed as Kd, often an IC50 or EC50 that approximates it; ≥ and ≤ were set here for values at or beyond the usual limits of such assays. The following applies: source organism: Mycobacterium tuberculosis variant bovis BCG str. Pasteur 1173P2.
The mark [14] stands for this setting: source organism: Sudan ebolavirus.
Where [15] appears, read: source organism: Zaire ebolavirus.
Setting [16] is: source organism: Vaccinia virus.
Where [17] appears, read: source organism: Vibrio vulnificus CMCP6.
The mark [18] stands for this setting: source organism: Treponema denticola.

The IC50 is the concentration that inhibits the measured activity by half. Low values mean inhibition by little substance, high ones a need for much substance. On to KLFSYGTLI, for which the IC50 in the assay with HLA-A*03:01 [1] (source organism: Variola virus) came to 5.5 µM; with HLA-B*15:01 [2] (source organism: Variola virus) it was 26.2 µM; in the assay with HLA-A*02:01 [3] (source organism: Variola virus), 0.61 µM.

As for IIIAVARKH, the IC50 amounted to 35.5 µM with HLA-A*03:01 [1] (source organism: Variola virus); 36.4 µM with HLA-B*15:01 [2] (source organism: Variola virus); 50.9 µM with HLA-A*02:01 [3] (source organism: Variola virus); 2.98 µM with HLA-A*24:02 (source organism: Variola virus); 14.5 µM in the assay with HLA-A*11:01 [4] (source organism: Variola virus).

Regarding ILFQKAFSM, the IC50 is 15.7 µM with HLA-A*03:01 [1] (setting [14]); 4.24 µM with HLA-B*15:01 [2] (setting [14]); 0.626 µM with HLA-A*02:01 [3] (setting [14]); 0.336 µM with HLA-A*24:02 (setting [14]); 54.8 µM with HLA-A*11:01 [4] (setting [14]).

A word on the Kd: it is a measure of binding affinity in units of concentration. Consider YDRLASTVI, for which the Kd with HLA-A*03:01 [5] (setting [15]), with HLA-A*29:02 (setting [15]), in the assay with HLA-A*02:12, in the assay with HLA-A*69:01 (setting [15]), with HLA-B*15:01 [6] and with HLA-B*48:01 was ≥ 20 µM in each case. Further, the Kd in the assay with HLA-A*02:11, with HLA-A*68:02, in the assay with HLA-A*31:01, in the assay with HLA-B*46:01 (setting [15]), with HLA-B*27:05 and with HLA-B*58:01 (setting [15]) was ≥ 20 µM in each case. Moreover, the Kd in the assay with HLA-A*24:03, in the assay with HLA-B*08:01 (setting [15]), in the assay with HLA-A*11:01 [7], in the assay with HLA-B*07:02 (setting [15]), with HLA-A*01:01 (setting [15]) and with HLA-B*57:01 (setting [15]) was ≥ 20 µM throughout. Moreover, the Kd with HLA-B*27:03, with HLA-A*26:01 [8], with HLA-B*18:01 [9], with HLA-A*02:01 [10] and in the assay with HLA-B*39:01 was ≥ 20 µM throughout. In the assay with HLA-A*24:02 (setting [14]), this sequence returned an IC50 of 2.49 µM.

Take ILMEHIHKL: the Kd with HLA-C*15:02 (source organism: Rattus norvegicus) stood at 0.239 µM.

On to SQVPKLLLW, for which the 50% inhibitory concentration (IC50) with HLA-B*15:01 [2] (source organism: Variola virus) was ≥ 121 µM.

As to YQRRRRFAI, the Kd is ≥ 20 µM with HLA-A*03:01 [5] (source organism: Brucella suis); ≥ 20 µM in the assay with HLA-A*29:02 (source organism: Brucella suis); ≥ 20 µM in the assay with HLA-A*69:01 (source organism: Brucella suis); ≥ 20 µM with HLA-B*40:01; 0.367 µM with HLA-B*08:02 (source organism: Brucella suis 1330); ≥ 20 µM with HLA-B*46:01 (source organism: Brucella suis). Moreover, the Kd with HLA-B*58:01 (source organism: Brucella suis), in the assay with HLA-B*18:01 [11], in the assay with HLA-A*02:01 [12] (source organism: Brucella suis), in the assay with HLA-B*44:02, with HLA-B*07:02 (source organism: Brucella suis) and with HLA-A*01:01 (source organism: Brucella suis) was ≥ 20 µM throughout. Moreover, the Kd with HLA-B*57:01 (source organism: Brucella suis) is ≥ 20 µM.

For the sequence VTTPARTAF, the Kd with HLA-C*15:02 (source organism: Mycobacterium tuberculosis C) was ≥ 20 µM; in the assay with HLA-B*58:01 (source organism: Mycobacterium avium 104) it was 1.1 µM.

KSRRFTVRF: the Kd with HLA-C*15:02 (source organism: Mycobacterium tuberculosis variant bovis BCG str. Pasteur 1173P2) was ≥ 20 µM; in the assay with HLA-B*58:01 (source organism: Mycobacterium tuberculosis), 0.422 µM.

Regarding RAFRNLNVT, the IC50 with HLA-B*15:01 [2] (setting [16]) was ≥ 77.9 µM; in the assay with HLA-A*02:01 [3] (setting [16]), 48.3 µM.

Turning to AVSHLTTLA, the values for the IC50 in the assay with HLA-B*15:01 [2] (setting [15]) and with HLA-A*02:01 [3] (setting [15]) were ≥ 135 µM and 3.08 µM, respectively.

In the case of LTITYSSSM, the Kd with HLA-A*26:01 [13] was found to be 0.0618 µM; in the assay with HLA-B*35:01, 1.18 µM.

With YFNVLDEKY, the IC50 in the assay with HLA-B*15:01 [2] (setting [16]) is ≥ 283 µM; with HLA-A*24:02 (setting [16]), 33 µM.

Regarding RGRKRFHTL, the Kd with HLA-B*08:02 (setting [17]) turned out to be 6.76 µM; with HLA-B*08:01 (setting [17]), 0.009 µM.

On to RQDEVGTPF, for which the Kd in the assay with HLA-A*69:01 (setting [18]) was ≥ 20 µM; with HLA-C*05:01 it was ≤ 0.001 µM; with HLA-A*02:01 [12] (setting [18]), 2.01 µM.

Regarding TVCGGIMFL, the Kd with HLA-C*15:02 (source organism: human gammaherpesvirus 4) came to 2.47 µM.
